Measurements published in patent publication US20080199481A1 (AstraZeneca / MedImmune, published 2008).
Where “and” joins values, the source holds several entries; their conditions need not be identical. Equal entries are not always repeated. Each block holds one binder with its values, some of them ahead of it.

B1: Human CXCL13 (MEL cell derived), unglycosylated (ligand)
chain: VLEVYYTSLRCRCVQESSVFIPRRFIDRIQILPRGNGCPRKEIIVWKKNKSIVCVDPQAEWIQRMMEVLRKRSSSTLPVPVF
notes: also called hCXCL13; Unglycosylated hCXCL13
B2: Cynomolgus CXCL13 (MEL cell derived) (ligand)
chain: VLEVYYTHLRCRCVQESSVFIPRRFIDRIQISPRGNGCPRKEIIVWKKNKSVVCVDPQAEWIQRIMEMLRKKSSSTPPVPVF
modifications: glycosylated (site not stated)
notes: also called Cyno CXCL13; glycosylated cyno CXCL13
B3: Antibody 1 (germlined IgG1) (antibody, V domains shown)
VH: EVQLLESGGGLVQPGGSLRLSCAASGFTFGNSWMSWVRQAPGKGLEWVSAISGSGGSTYYADSVKGRFTISRDNSKNTLYLQMNSLRAEDTAVYYCTRDLPGIAVAGYWGQGTLVTVSS
VL: DTQMTQSPSTLSASVGDRVTITCRASEGIYHWLAWYQQKPGKAPKLLIYKASSLASGVPSRFSGSGSGTEFTLTISSLQPDDFATYYCQQYSNYPLTFGGGTKLEIKR
notes: also called germlined Antibody 1 IgG1; antibody 1 (IgG1)

What was measured:
[1] = molecular target: B3; assay: CXCL13 FLISA competition: soluble chemokine titrated against 0.31 nM Antibody 1 germlined IgG1 binding to bead-bound biotinylated human CXCL13 (n = 1)
Protocol: (§1) Samples and reagents were diluted in Assay Buffer (Phosphate Buffered Saline with 0.1% BSA, 0.1% Tween-20 and 0.01% sodium azide). 0.25 nM biotinylated CXCL13 (Almac) was pre-incubated with 0.004% w/v 6-8 μm streptavidin coated polystyrene particles (Spherotec SVP-60-5) for 1 hour at room temperature. The beads were then centrifuged at 3000 rpm for 5 minutes, the supernatant discarded and the pellet resuspended in the original volume of assay buffer to give a 0.004% w/v bead/biotinylated humanCXCL13 mix. 10 μL competitor, assay buffer (total binding control) or excess humanCXCL13 (Non specific binding (NSB) control) was added to a 384 well clear-bottomed non-binding surface assay plate (Costar 3655). […] FL1 signal was read on the Applied Biosystems Cellular Detection System 8200. Data was analysed using the Wang Goldman algorithm with gating of size 3-12, colour ratio <0.4, minimum count 20.
(§2) Specificity of the germlined Antibody 1 IgG₁ for human CXCL13 (MEL cell derived) over other members of the CXC family of chemokines was determined using the CXCL13 FLISA (Fluorescence linked immunosorbent assay). […] The biotinylated human CXCL13 antibody-binding interaction was detected with a fluorescently tagged anti-human IgG antibody using Fluorescence Microvolume assay Technology (refer to “Assay Materials and Methods” for details). […]

[2] = molecular target: B3; assay: CXCL13 FLISA competition: soluble chemokine titrated against Antibody 1 germlined IgG1 binding to bead-bound biotinylated human CXCL13 (n = 1)
Protocol: as §1, §2

[3] = molecular target: T1, CXCL12 (SDF-1α) (UniProt P48061-2 22-89); assay: CXCL13 FLISA competition assay (FMAT, biotinylated human CXCL13 on streptavidin beads)
T1 construct: also called CXCL12 (Peprotech)
Protocol: (§3) Samples and reagents were diluted in Assay Buffer (Phosphate Buffered Saline with 0.1% BSA, 0.1% Tween-20 and 0.01% sodium azide). 0.25 nM biotinylated CXCL13 (Almac) was pre-incubated with 0.004% w/v 6-8 μm streptavidin coated polystyrene particles (Spherotec SVP-60-5) for 1 hour at room temperature. The beads were then centrifuged at 3000 rpm for 5 minutes, the supernatant discarded and the pellet resuspended in the original volume of assay buffer to give a 0.004% w/v bead/biotinylated humanCXCL13 mix. 10 μL competitor, assay buffer (total binding control) or excess humanCXCL13 (Non specific binding (NSB) control) was added to a 384 well clear-bottomed non-binding surface assay plate (Costar 3655). 10 μL 5 nM Goat anti-human (H+L) Alexa Fluor®-647 (Invitrogen A21445), 10 μL 0.31 nM Antibody 1 (germlined IgG) and 20 μL Bead/biotinylated CXCL13 mix were then added and the plates incubated for 4 hours at room temperature. FL1 signal was read on the Applied Biosystems Cellular Detection System 8200. Data was analysed using the Wang Goldman algorithm with gating of size 3-12, colour ratio <0.4, minimum count 20.
(§4) Specificity of the germlined Antibody 1 IgG₁ for human CXCL13 (MEL cell derived) over other members of the CXC family of chemokines was determined using the CXCL13 FLISA (Fluorescence linked immunosorbent assay). In this assay the chemokines CXCL3 (R&D Systems), CXCL5 (R&D Systems), CXCL6 (R&D Systems), CXCL8 (R&D Systems), CXCL10 (R&D Systems) and CXCL12 (Peprotech) were tested for competition with biotinylated human CXCL13 (Almac) immobilised on a streptavidin bead for binding to germlined Antibody 1 IgG₁. The biotinylated human CXCL13 antibody-binding interaction was detected with a fluorescently tagged anti-human IgG antibody using Fluorescence Microvolume assay Technology (refer to “Assay Materials and Methods” for details). Standard chemokine names (Zlotnik and Yoshie, 2000) are given together with their most commonly used synonym.

[4] = molecular target: T2, CXCL10 (IP10) (UniProt P02778 22-98); assay: as above
T2 construct: also called CXCL10 (R&D Systems)
T2 sequence (looked up): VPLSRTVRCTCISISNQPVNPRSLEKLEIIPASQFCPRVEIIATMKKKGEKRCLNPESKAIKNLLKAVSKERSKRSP
Protocol: as §3, §4

[5] = molecular target: T3, CXCL8 (IL-8) (UniProt P10145 28-99); assay: as above
T3 construct: also called CXCL8 (R&D Systems)
T3 sequence (looked up): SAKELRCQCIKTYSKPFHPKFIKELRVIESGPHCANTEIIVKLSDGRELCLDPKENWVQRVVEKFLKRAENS
Protocol: as §3, §4

[6] = molecular target: T4, CXCL5 (ENA-78) (UniProt P42830 37-114, limits assumed); assay: as above
T4 construct: also called CXCL5 (R&D Systems)
T4 sequence (looked up): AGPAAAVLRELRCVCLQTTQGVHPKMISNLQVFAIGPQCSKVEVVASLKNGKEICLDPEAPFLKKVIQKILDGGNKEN
Protocol: as §3, §4

[7] = molecular target: T5, CXCL6 (GCP-2) (UniProt P80162 38-114, limits assumed); assay: as above
T5 construct: also called CXCL6 (R&D Systems)
T5 sequence (looked up): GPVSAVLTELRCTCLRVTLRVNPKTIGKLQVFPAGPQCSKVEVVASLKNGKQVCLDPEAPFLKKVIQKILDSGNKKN
Protocol: as §3, §4

[8] = molecular target: T6, CXCL3 (GROγ) (UniProt P19876 35-107); assay: as above
T6 construct: also called CXCL3 (R&D Systems)
T6 sequence (looked up): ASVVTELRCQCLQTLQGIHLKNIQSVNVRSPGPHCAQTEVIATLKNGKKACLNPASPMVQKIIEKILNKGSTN
Protocol: as §3, §4

[9] = molecular target: B1; assay: SPR (BIAcore 2000), IgG amine-coupled to a CM3 chip, human CXCL13 0.10-0.60 nM flowed; 1:1 Langmuir (n=1, initial data)
Protocol: (§5) Antibodies were diluted to 1.0 μg mL-1 in 10 mM acetate buffer pH 4.5. Standard amine linkage chemistry (using amine coupling kit BR-1000-50) was employed to create blank (Fc 1) and 500 RU surfaces of IgG on a CM3 chip (BIAcore, BR-1005-41, lot: 1160100 expiry April '07). The wash solution employed was Glycine pH 2.0.
(§6) Flow of human and cynomolgus CXCL13 over chip surfaces. A dilution series of each CXCL13 (0.10, 0.20, 0.30, 0.40, 0.50 and 0.60 nM) was constructed in HBS-EP buffer and flowed at 30 μL min-1 over all flow cells (association time of 4 minutes, dissociation for 10 minutes and regeneration with two 20 μL pulses of 10 mM Glycine pH 2.0). Blank injections were made with the same buffer. All solutions were prepared and stored in polypropylene.

[10] = molecular target: B1; assay: cell-based or functional assay
[11] = molecular target: B1; assay: SPR (BIAcore 2000), IgG captured on Protein G', human CXCL13 flowed; average of the 3 experiments of Table 10a
Excerpt: (§7) Standard amine linkage chemistry was employed to create blank and 265 RU surfaces of Protein G′ (Sigma P4689) on Flow cells (Fc) 1 and 2, respectively, of a normalized CM5 chip (BIAcore, BR-1000-14). This Fc 2 Protein G′ surface was used to capture 240-385 RUs Antibody 1 (germlined IgG₁).

[12] = molecular target: B1; assay: cell-based or functional assay; remark: listed apart in the source
[13] = molecular target: B1; assay: cell-based or functional assay; remark: listed apart in the source
[14] = molecular target: B2; assay: cell-based or functional assay
[15] = molecular target: T7, Glycosylated human CXCL13 (MEL cell derived) (human, UniProt O43927 23-104, glycosylated (site not stated)); assay: cell-based or functional assay
T7 sequence: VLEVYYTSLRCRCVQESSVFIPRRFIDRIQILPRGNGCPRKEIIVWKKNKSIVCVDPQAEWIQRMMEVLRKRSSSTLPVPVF

[16] = molecular target: B1; assay: SPR (BIAcore 2000), IgG captured on Protein G', human CXCL13 0.25-20 nM flowed; 1:1 Langmuir with mass transport limitation
Excerpt: as §7

[17] = molecular target: B2; assay: SPR (BIAcore 2000), IgG amine-coupled to a CM3 chip, cyno CXCL13 0.10-0.60 nM flowed; 1:1 Langmuir (n=1, initial data)
Protocol: as §5, §6

[18] = molecular target: B1; assay: cell-based or functional assay; remark: listed apart in the source
[19] = molecular target: B2; assay: cell-based or functional assay
[20] = molecular target: B2; assay: SPR (BIAcore 2000), IgG captured on Protein G', cyno CXCL13 flowed; average of the 2 experiments of Table 11
Excerpt: as §7

[21] = molecular target: B2; assay: SPR (BIAcore 2000), IgG captured on Protein G', cyno CXCL13 0.125-40 nM flowed; 1:1 Langmuir with mass transport limitation
Excerpt: as §7

[22] = molecular target: T8, Biotinylated human CXCL13 (Almac) (human, UniProt O43927 23-109, biotin at the most C terminal lysine residue); assay: SPR (BIAcore 2000), 28 RU biotinylated human CXCL13 captured on streptavidin, Fab 0.065-2.105 nM flowed
T8 construct: also called human CXCL13 biotinylated near the C-terminus (Almac custom synthesis)
T8 sequence: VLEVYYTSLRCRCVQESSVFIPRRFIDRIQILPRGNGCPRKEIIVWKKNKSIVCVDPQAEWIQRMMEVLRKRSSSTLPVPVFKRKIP
Excerpt: Standard amine linkage chemistry was employed to create blank (Fc 1) and 228 and 303 RU surfaces of Streptavidin (Perbio/Pierce 21125) on Flow cells (Fc) 2 and 3, respectively, of a normalized CM5 chip (BIAcore, BR-1000-14). This Fc 3 streptavidin surface was used to capture 28 RUs human CXCL13 biotinylated near the C-terminus (Almac custom synthesis).

Binder: B1
- IC50 [1]: 0.2 nM

Binder: B2
- IC50 [2]: 0.8 nM

Binder: B3
- binding result [3]: no binding (tested: 1 µM)
- binding result [4]: no binding (tested: 1 µM)
- binding result [5]: no binding (tested: 1 µM)
- binding result [6]: no binding (tested: 1 µM)
- binding result [7]: no binding (tested: 1 µM)
- binding result [8]: no binding (tested: 1 µM)
- Kd [9]: 0.259 nM
- koff [9]: 0.000524 s⁻¹
- kon [9]: 2.02e+06 M⁻¹ s⁻¹
- IC50, CXCL13 mediated CHO Gqi5 hCXCR5 c4.4 Ca2+ release assay (FLIPR) [10]: 10.4 nM
- Kd [11]: 0.0414 nM
- koff [11]: 0.000712 s⁻¹
- kon [11]: 1.77e+07 M⁻¹ s⁻¹
- IC50, human tonsillar B cell chemotaxis assay (100 nM human non-glycosylated CXCL13, ED80; n=4) [12]: 9.59 nM
- IC50, B300.19 hCXCR5 chemotaxis assay (ED80 concentration of CXCL13) [13]: 6.22 nM
- IC50, B300.19 hCXCR5 chemotaxis assay (ED80 concentration of CXCL13) [14]: 4.53 nM
- IC50, B300.19 hCXCR5 chemotaxis assay (ED80 concentration of CXCL13) [15]: 3.94 nM
- Kd [16]: 0.0322 nM and 0.0504 nM and 0.0417 nM
- koff [16]: 0.000684 s⁻¹ and 0.000715 s⁻¹ and 0.000736 s⁻¹
- kon [16]: 2.13e+07 M⁻¹ s⁻¹ and 1.42e+07 M⁻¹ s⁻¹ and 1.76e+07 M⁻¹ s⁻¹
- Kd [17]: 0.285 nM
- koff [17]: 0.00104 s⁻¹
- kon [17]: 3.63e+06 M⁻¹ s⁻¹
- IC50, LANCE CXCL13 cAMP assay (CHO Gqi5 hCXCR5 cells) [18]: 1.6 nM
- IC50, LANCE CXCL13 cAMP assay (CHO Gqi5 hCXCR5 cells) [19]: 0.3 nM
- Kd [20]: 0.0311 nM
- koff [20]: 0.000625 s⁻¹
- kon [20]: 2.01e+07 M⁻¹ s⁻¹
- Kd [21]: 0.033 nM and 0.0291 nM
- koff [21]: 0.00065 s⁻¹ and 0.000599 s⁻¹
- kon [21]: 1.97e+07 M⁻¹ s⁻¹ and 2.05e+07 M⁻¹ s⁻¹

- Kd [22]: 0.185 nM
- koff [22]: 0.00166 s⁻¹
- kon [22]: 8.98e+06 M⁻¹ s⁻¹
B4: Antibody 1 (germlined IgG1) Fab (Fab, V domains shown)
VH: EVQLLESGGGLVQPGGSLRLSCAASGFTFGNSWMSWVRQAPGKGLEWVSAISGSGGSTYYADSVKGRFTISRDNSKNTLYLQMNSLRAEDTAVYYCTRDLPGIAVAGYWGQGTLVTVSS
VL: DTQMTQSPSTLSASVGDRVTITCRASEGIYHWLAWYQQKPGKAPKLLIYKASSLASGVPSRFSGSGSGTEFTLTISSLQPDDFATYYCQQYSNYPLTFGGGTKLEIKR
notes: also called Size Exclusion Chromatography monomerized Fab fragments of Antibody 1
